We go through three molecules from patent publication US20230295336A1 (INHIBRX, published 2023).

Assay [1] deals with T1, B7H3 (CD276) (human, UniProt Q5ZPR3 29-534).
T1 construct: whole, on cells
T1 sequence (looked up): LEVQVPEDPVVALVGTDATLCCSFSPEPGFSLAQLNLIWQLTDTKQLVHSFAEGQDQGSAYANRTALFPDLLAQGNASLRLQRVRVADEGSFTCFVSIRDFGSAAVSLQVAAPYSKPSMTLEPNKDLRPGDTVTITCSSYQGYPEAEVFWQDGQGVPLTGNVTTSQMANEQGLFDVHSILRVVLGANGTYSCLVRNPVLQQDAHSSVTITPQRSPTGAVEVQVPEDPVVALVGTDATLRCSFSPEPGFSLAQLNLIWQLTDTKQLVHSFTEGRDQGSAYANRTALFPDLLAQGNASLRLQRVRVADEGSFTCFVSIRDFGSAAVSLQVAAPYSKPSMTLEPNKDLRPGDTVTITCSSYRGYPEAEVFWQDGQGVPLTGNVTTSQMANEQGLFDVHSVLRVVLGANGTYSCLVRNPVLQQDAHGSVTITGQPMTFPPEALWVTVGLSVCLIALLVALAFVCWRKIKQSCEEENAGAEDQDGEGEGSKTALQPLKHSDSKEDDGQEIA
As to the kind of experiment: flow cytometry on A375 cells, anti-human Fc secondary. On the procedure:
(§1) Binding of exemplary multispecific constructs containing an antigen-binding domain directed against B7H3 were assessed for binding to B7H3 positive A375 tumor cells or primary T-cells. The constructs were generated containing antigen-binding domain(s) that were either sdAbs or a FABs, and that were positioned either only N-terminal to the Fc or both N-terminal to the Fc and C-terminal to the anti-CD3 binding domain (see FIGS. 3A and 3C and Table E1.1). Among the various formats of constructs tested included: sdAb-Fc-dsFV-sdAb (cx3072, cx5952) sdAb-Fc-FV (cx6079), sdAb-Fc-dsFV (cs6080, cx6081), MAB-FV (cx5067) and MAB-dsFV (cx6083, cx6084), where the FV represents the anti-CD3 binding domain composed of VH and VL domain pairs and “ds” notes disulfide stabilized via an engineered interdomain disulfide bond.
(§2) Binding was assessed as described above via flow cytometry using a fluorophore-conjugated anti-human Fc secondary antibody. cx3072 bound to A375 cells with high affinity (FIG. 6A) but not to isolated T-cells (FIG. 6B). […] The B7H3-targeting sdAb containing constructs (cx5952, cx6079, cx6080, and cx6081) bound to B7H3 positive cells with similar affinities (depicted in FIG. 6E), with cx5952 displaying higher maximal binding. cx6079, cx6080 and cx6081 contain two identical B7H3-targeting sdAbs, whereas cx5952, and cx3072 contain two distinct B7H3-targeting sdAb that bind different epitopes. The MAB-FV, cx5067, contains two identical B7H3-targeting FAB domains.
A general note: A flow cytometer gives signals particle by particle.

The target in assay [2] is T2, CD3 on the surface of primary T cells (human, UniProt P07766 23-207).
T2 construct: whole, on cells; CD3 is a multimeric complex (ε, γ, δ, ζ chains) with the TCR; In the reporter assays CD3 stood on Jurkat cells; also called CD3ε
The assay can be described thus: flow cytometry on isolated primary human T cells. On the procedure: as §1, §2

Assay [3] deals with T1, B7H3 (CD276). The assay can be described thus: flow cytometry on A375 cells. As to the method:
as §1
Binding was assessed as described above via flow cytometry using a fluorophore-conjugated anti-human Fc secondary antibody. cx3072 bound to A375 cells with high affinity (FIG. 6A) but not to isolated T-cells (FIG. 6B). […]

T2 sequence (P07766 23-207): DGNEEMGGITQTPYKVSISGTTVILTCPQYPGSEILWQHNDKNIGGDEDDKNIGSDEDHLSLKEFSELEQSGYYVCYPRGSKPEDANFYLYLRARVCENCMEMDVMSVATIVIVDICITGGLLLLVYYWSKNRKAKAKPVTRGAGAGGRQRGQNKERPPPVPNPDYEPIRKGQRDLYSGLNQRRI

B1: cx6083 (bispecific antibody)
chain 1: EVQLVESGGGLVQPGGSLRLSCAASGFTFSSFGMHWVRQAPGKGLEWVAYISSDSSAIYYADTVKGRFTISRDNAKNSLYLQMNSLRDEDTAVYYCGRGRENIYYGSRLDYWGQGTTVTVSSASTKGPSVFPLAPSSKSTSGGTAALGCLVKDYFPEPVTVSWNSGALTSGVHTFPAVLQSSGLYSLSSVVTVPSSSLGTQTYICNVNHKPSNTKVDKKVEPKSCDKTHTCPPCPAPPVAGPSVFLFPPKPKDTLMISRTPEVTCVVVDVKHEDPEVKFNWYVDGVEVHNAKTKPREEEYNSTYRVVSVLTVLHQDWLNGKEYKCKVSNKALPAPIEKTISKAKGQPREPQVYTLPPSREEMTKNQVSLTCDVSGFYPSDIAVEWESDGQPENNYKTTPPVLDSDGSFFLYSKLTVDKSRWEQGDVFSCSVMHEALHNHYTQKSLSLSPGKGGGGSGGGGSGGGGSEVQLVESGGGLVQPGGSLRLSCAASGFTFSTYAMNWVRQAPGKCLEWVGRIRSKYNNYATYYADSVKGRFTISRDDSKNTLYLQMNSLRAEDTAVYYCVRHGNFGDSYVSWFAYWGQGTLVTVSS
chain 2: EVQLVESGGGLVQPGGSLRLSCAASGFTFSSFGMHWVRQAPGKGLEWVAYISSDSSAIYYADTVKGRFTISRDNAKNSLYLQMNSLRDEDTAVYYCGRGRENIYYGSRLDYWGQGTTVTVSSASTKGPSVFPLAPSSKSTSGGTAALGCLVKDYFPEPVTVSWNSGALTSGVHTFPAVLQSSGLYSLSSVVTVPSSSLGTQTYICNVNHKPSNTKVDKKVEPKSCDKTHTCPPCPAPPVAGPSVFLFPPKPKDTLMISRTPEVTCVVVDVKHEDPEVKFNWYVDGVEVHNAKTKPREEQYNSTYRVVSVLTVLHQDWLNGKEYKCKVSNKALPAPIEKTISKAKGQPREPQVYTLPPSREQMTKNQVKLTCLVKGFYPSDIAVEWESNGQPENNYKTTPPVLDSDGSFFLYSKLTVDKSRWQQGNVFSCSVMHEALHNHYTQKSLSLSPGKGGGGSGGGGSGGGGSQAVVTQEPSLTVSPGGTVTLTCGSSTGAVTTSNYANWVQQKPGKSPRGLIGGTNKRAPGVPARFSGSLLGGKAALTISGAQPEDEADYYCALWYSNHWVFGCGTKLTVL
light: DIQLTQSPSFLSASVGDRVTITCKASQNVDTNVAWYQQKPGKAPKALIYSASYRYSGVPSRFSGSGSGTDFTLTISSLQPEDFATYYCQQYNNYPFTFGQGTKLEIKRTVAAPSVFIFPPSDEQLKSGTASVVCLLNNFYPREAKVQWKVDNALQSGNSQESVTEQDSKDSTYSLSSTLTLSKADYEKHKVYACEVTHQGLSSPVTKSFNRGEC
notes: Three polypeptides; B7H3 Fab on both Fc chains; anti-CD3 Fv disulfide-stabilized (VH G44C / VL G100C); also called MAB-dsFV; B7H3-targeted constrained CD3 engaging construct (Fab format)
In the case of B1, the results for the binding result in assay [1] and in assay [2] were “binds” and “no binding”, respectively.

B2: cx6084 (bispecific antibody, human IgG1, kappa)
chain 1: EVQLVESGGGLVQPGGSLRLSCAASGFTFSSFGMHWVRQAPGKGLEWVAYISSDSSAIYYADTVKGRFTISRDNAKNSLYLQMNSLRDEDTAVYYCGRGRENIYYGSRLDYWGQGTTVTVSSASTKGPSVFPLAPSSKSTSGGTAALGCLVKDYFPEPVTVSWNSGALTSGVHTFPAVLQSSGLYSLSSVVTVPSSSLGTQTYICNVNHKPSNTKVDKKVEPKSCDKTHTCPPCPAPPVAGPSVFLFPPKPKDTLMISRTPEVTCVVVDVKHEDPEVKFNWYVDGVEVHNAKTKPREEEYNSTYRVVSVLTVLHQDWLNGKEYKCKVSNKALPAPIEKTISKAKGQPREPQVYTLPPSREEMTKNQVSLTCDVSGFYPSDIAVEWESDGQPENNYKTTPPVLDSDGSFFLYSKLTVDKSRWEQGDVFSCSVMHEALHNHYTQKSLSLSPGKGGGGSGGGGSGGGGSEVQLVESGGGLVQPGGSLRLSCAASGFTFNTYAMNWVRQAPGKCLEWVARIRSKYNNYATYYADSVKGRFTISRDDAKNTLYLQMSSLRAEDTAVYYCVRHGNFGNSYVSWFAYWGQGTLVTVKP
chain 2: EVQLVESGGGLVQPGGSLRLSCAASGFTFSSFGMHWVRQAPGKGLEWVAYISSDSSAIYYADTVKGRFTISRDNAKNSLYLQMNSLRDEDTAVYYCGRGRENIYYGSRLDYWGQGTTVTVSSASTKGPSVFPLAPSSKSTSGGTAALGCLVKDYFPEPVTVSWNSGALTSGVHTFPAVLQSSGLYSLSSVVTVPSSSLGTQTYICNVNHKPSNTKVDKKVEPKSCDKTHTCPPCPAPPVAGPSVFLFPPKPKDTLMISRTPEVTCVVVDVKHEDPEVKFNWYVDGVEVHNAKTKPREEQYNSTYRVVSVLTVLHQDWLNGKEYKCKVSNKALPAPIEKTISKAKGQPREPQVYTLPPSREQMTKNQVKLTCLVKGFYPSDIAVEWESNGQPENNYKTTPPVLDSDGSFFLYSKLTVDKSRWQQGNVFSCSVMHEALHNHYTQKSLSLSPGKGGGGSGGGGSGGGGSQAVVTQEPSLTVSPGGTVTLTCGSSTGAVTTSNYANWVQQKPGQAFRGLIGGTNKRAPGVPARFSGSLLGGKAALTISGAQPEDEADYYCALWYSNHWVFGCGTKLEIK
light: DIQLTQSPSFLSASVGDRVTITCKASQNVDTNVAWYQQKPGKAPKALIYSASYRYSGVPSRFSGSGSGTDFTLTISSLQPEDFATYYCQQYNNYPFTFGQGTKLEIKRTVAAPSVFIFPPSDEQLKSGTASVVCLLNNFYPREAKVQWKVDNALQSGNSQESVTEQDSKDSTYSLSSTLTLSKADYEKHKVYACEVTHQGLSSPVTKSFNRGEC
notes: as for B1
In the case of B2, the binding result in assay [1] is recorded as “binds”; in assay [2], “no binding”.

B3: cx6080 (bispecific antibody)
chain 1: EVQLVESGGGEVQPGGSLRLSCAASGFSFSSNVMMWVRQAPGKGLEWVSTIYSSGTGTFYAESVKGRFTISRDNAKNTLYLQMSSLRPEDTAVYYCATSGPVRGWGPRSQGTLVTVKPPGGGGDKTHTCPPCPAPPVAGPSVFLFPPKPKDTLMISRTPEVTCVVVDVKHEDPEVKFNWYVDGVEVHNAKTKPREEEYNSTYRVVSVLTVLHQDWLNGKEYKCKVSNKALPAPIEKTISKAKGQPREPQVYTLPPSREEMTKNQVSLTCDVSGFYPSDIAVEWESDGQPENNYKTTPPVLDSDGSFFLYSKLTVDKSRWEQGDVFSCSVMHEALHNHYTQKSLSLSPGKGGGGSGGGGSGGGGSEVQLVESGGGLVQPGGSLRLSCAASGFTFSTYAMNWVRQAPGKCLEWVGRIRSKYNNYATYYADSVKGRFTISRDDSKNTLYLQMNSLRAEDTAVYYCVRHGNFGDSYVSWFAYWGQGTLVTVSS
chain 2: EVQLVESGGGEVQPGGSLRLSCAASGFSFSSNVMMWVRQAPGKGLEWVSTIYSSGTGTFYAESVKGRFTISRDNAKNTLYLQMSSLRPEDTAVYYCATSGPVRGWGPRSQGTLVTVKPPGGGGDKTHTCPPCPAPPVAGPSVFLFPPKPKDTLMISRTPEVTCVVVDVKHEDPEVKFNWYVDGVEVHNAKTKPREEQYNSTYRVVSVLTVLHQDWLNGKEYKCKVSNKALPAPIEKTISKAKGQPREPQVYTLPPSREQMTKNQVKLTCLVKGFYPSDIAVEWESNGQPENNYKTTPPVLDSDGSFFLYSKLTVDKSRWQQGNVFSCSVMHEALHNHYTQKSLSLSPGKGGGGSGGGGSGGGGSQAVVTQEPSLTVSPGGTVTLTCGSSTGAVTTSNYANWVQQKPGKSPRGLIGGTNKRAPGVPARFSGSLLGGKAALTISGAQPEDEADYYCALWYSNHWVFGCGTKLTVL
notes: Heterodimer of chain 1 and chain 2; anti-CD3 Fv disulfide-stabilized (VH G44C / VL G100C); two identical B7H3 sdAbs, both N-terminal to the Fc; also called cs6080; B7H3-targeting constrained CD3 engaging construct
As for B3, the figures for the binding result in assay [2] and in assay [3] were “no binding” and “binds”, respectively.
